Consider 85 variants from paper PMC13397619.

B1: NLV3 TCR beta chain (CDR3β only) (parent)
chain: ASSPTGGSPSPLH
partner: NLCPMVATV

The variants in one assay derive from B1. The assay is described as follows: T-Switch: Jurkat TCRβ−/− cells expressing a CDR3 saturation-mutagenesis library, stained with two peptide-HLA-A*02:01 tetramers (original and novel peptide) plus anti-CD3, FACS-sorted into four gates, gDNA sequenced. The note with it: with HLA-A*02:01 with peptide … (NLV 2-1, the novel peptide), tetramers 1 µg/mL, 30 min on ice, SP, DP and SW gates expanded about 10 days between rounds ('two to three rounds of selection' in the Methods), gate SW: higher = more of the variant in the gate that binds the novel peptide and not the original one = switched binding. Fold enrichment of the CDR3 variant in one FACS gate of a two-tetramer stain, unresolved parent, parent is a CDR3 fragment, zero in all gates, scale: fold enrichment, numbering: sequential-on-construct, ….
For the variant […] (CDR3 as printed); G7P derived by comparing it with the table's wild-type CDR3 ASSPTGGSPSPLH, the enrichment is 0.

The same assay, now with this note: with HLA-A*02:01 with peptide … (NLV 2-1, the novel peptide), tetramers 1 µg/mL, 30 min on ice, SP, DP and SW gates expanded about 10 days between rounds ('two to three rounds of selection' in the Methods), gate SW: higher = more of the variant in the gate that binds the novel peptide and not the original one = switched binding. Fold enrichment of the CDR3 variant in one FACS gate of a two-tetramer stain, unresolved parent, parent is a CDR3 fragment, scale: fold enrichment, numbering: sequential-on-construct, sequence starts at 1.
Regarding […] (CDR3 as printed); S3A derived by comparing it with the table's wild-type CDR3 ASSPTGGSPSPLH, the enrichment came out at 0.
Still for that read-out and setting: next, […] (CDR3 as printed); A1C derived by comparing it with the table's wild-type CDR3 ASSPTGGSPSPLH: 0; […] (CDR3 as printed); A1M derived by comparing it with the table's wild-type CDR3 ASSPTGGSPSPLH: 0; […] (CDR3 as printed); G7H derived by comparing it with the table's wild-type CDR3 ASSPTGGSPSPLH: 0.
Consider […] (CDR3 as printed); S3I derived by comparing it with the table's wild-type CDR3 ASSPTGGSPSPLH, for which the enrichment came to 0.
As for […] (CDR3 as printed); A1K derived by comparing it with the table's wild-type CDR3 ASSPTGGSPSPLH, the enrichment was found to be 0.
The same measure, in the same setting: as for […] (CDR3 as printed); S8D derived by comparing it with the table's wild-type CDR3 ASSPTGGSPSPLH, the figure is 0.
Regarding […] (CDR3 as printed); L12S derived by comparing it with the table's wild-type CDR3 ASSPTGGSPSPLH, the enrichment is 0.
Still for that read-out and setting: as for […] (CDR3 as printed); P11K derived by comparing it with the table's wild-type CDR3 ASSPTGGSPSPLH, the figure is 0; as for […] (CDR3 as printed); T5F derived by comparing it with the table's wild-type CDR3 ASSPTGGSPSPLH, 0; as for […] (CDR3 as printed); G6Q derived by comparing it with the table's wild-type CDR3 ASSPTGGSPSPLH, 0.
As to […] (CDR3 as printed); H13S derived by comparing it with the table's wild-type CDR3 ASSPTGGSPSPLH, the enrichment was found to be 0.
On the same count and under the same terms, next, […] (CDR3 as printed); S3W derived by comparing it with the table's wild-type CDR3 ASSPTGGSPSPLH: 0; […] (CDR3 as printed); P9R derived by comparing it with the table's wild-type CDR3 ASSPTGGSPSPLH: 0; […] (CDR3 as printed); L12R derived by comparing it with the table's wild-type CDR3 ASSPTGGSPSPLH: 0.
Same read-out and setting: next, […] (CDR3 as printed); S8P derived by comparing it with the table's wild-type CDR3 ASSPTGGSPSPLH: 0; […] (CDR3 as printed); S2F derived by comparing it with the table's wild-type CDR3 ASSPTGGSPSPLH: 0; […] (CDR3 as printed); P4W derived by comparing it with the table's wild-type CDR3 ASSPTGGSPSPLH: 0.
The same measure, in the same setting: as for […] (CDR3 as printed); L12C derived by comparing it with the table's wild-type CDR3 ASSPTGGSPSPLH, the figure is 0.
For […] (CDR3 as printed); P4L derived by comparing it with the table's wild-type CDR3 ASSPTGGSPSPLH, the enrichment came to 0.
On the same count and under the same terms, next, […] (CDR3 as printed); S8G derived by comparing it with the table's wild-type CDR3 ASSPTGGSPSPLH: 0; […] (CDR3 as printed); G6R derived by comparing it with the table's wild-type CDR3 ASSPTGGSPSPLH: 0.
On to […] (CDR3 as printed); S10K derived by comparing it with the table's wild-type CDR3 ASSPTGGSPSPLH, for which the enrichment was found to be 0.
On the same count and under the same terms, as for […] (CDR3 as printed); S8A derived by comparing it with the table's wild-type CDR3 ASSPTGGSPSPLH, the figure is 0; as for […] (CDR3 as printed); P4S derived by comparing it with the table's wild-type CDR3 ASSPTGGSPSPLH, 0; as for […] (CDR3 as printed); P9W derived by comparing it with the table's wild-type CDR3 ASSPTGGSPSPLH, 0.
Same read-out and setting: next, […] (CDR3 as printed); G7T derived by comparing it with the table's wild-type CDR3 ASSPTGGSPSPLH: 0; […] (CDR3 as printed); P4K derived by comparing it with the table's wild-type CDR3 ASSPTGGSPSPLH: 0.
As to […] (CDR3 as printed); H13R derived by comparing it with the table's wild-type CDR3 ASSPTGGSPSPLH, the enrichment was 0.
Still for that read-out and setting: as for […] (CDR3 as printed); P9H derived by comparing it with the table's wild-type CDR3 ASSPTGGSPSPLH, the figure is 0; as for […] (CDR3 as printed); S8L derived by comparing it with the table's wild-type CDR3 ASSPTGGSPSPLH, 0; as for […] (CDR3 as printed); P9S derived by comparing it with the table's wild-type CDR3 ASSPTGGSPSPLH, 0.
On to […] (CDR3 as printed); H13G derived by comparing it with the table's wild-type CDR3 ASSPTGGSPSPLH, for which the enrichment turned out to be 0.
As for […] (CDR3 as printed); S3V derived by comparing it with the table's wild-type CDR3 ASSPTGGSPSPLH, the enrichment came to 0.
In the case of […] (CDR3 as printed); P11Q derived by comparing it with the table's wild-type CDR3 ASSPTGGSPSPLH, the enrichment amounted to 0.
For […] (CDR3 as printed); P11M derived by comparing it with the table's wild-type CDR3 ASSPTGGSPSPLH, the enrichment was 0.
Still for that read-out and setting: next, […] (CDR3 as printed); S2E derived by comparing it with the table's wild-type CDR3 ASSPTGGSPSPLH: 0.
As for […] (CDR3 as printed); T5L derived by comparing it with the table's wild-type CDR3 ASSPTGGSPSPLH, the enrichment was determined as 0.
For the variant […] (CDR3 as printed); G7D derived by comparing it with the table's wild-type CDR3 ASSPTGGSPSPLH, the enrichment was 0.
Regarding […] (CDR3 as printed); G7E derived by comparing it with the table's wild-type CDR3 ASSPTGGSPSPLH, the enrichment was 0.
The same measure, in the same setting: next, […] (CDR3 as printed); P4D derived by comparing it with the table's wild-type CDR3 ASSPTGGSPSPLH: 0.
For […] (CDR3 as printed); G6N derived by comparing it with the table's wild-type CDR3 ASSPTGGSPSPLH, the enrichment turned out to be 0.
The same measure, in the same setting: next, […] (CDR3 as printed); S8R derived by comparing it with the table's wild-type CDR3 ASSPTGGSPSPLH: 0.
On the same count and under the same terms, next, […] (CDR3 as printed); S3K derived by comparing it with the table's wild-type CDR3 ASSPTGGSPSPLH: 0.
[…] (CDR3 as printed); P11E derived by comparing it with the table's wild-type CDR3 ASSPTGGSPSPLH: the enrichment worked out at 0.
On the same count and under the same terms, as for […] (CDR3 as printed); L12A derived by comparing it with the table's wild-type CDR3 ASSPTGGSPSPLH, the figure is 0; as for […] (CDR3 as printed); G7V derived by comparing it with the table's wild-type CDR3 ASSPTGGSPSPLH, 0.
The same measure, in the same setting: as for […] (CDR3 as printed); P4E derived by comparing it with the table's wild-type CDR3 ASSPTGGSPSPLH, the figure is 0.
[…] (CDR3 as printed); L12V derived by comparing it with the table's wild-type CDR3 ASSPTGGSPSPLH: the enrichment stood at 0.
The same measure, in the same setting: as for […] (CDR3 as printed); P11D derived by comparing it with the table's wild-type CDR3 ASSPTGGSPSPLH, the figure is 0; as for […] (CDR3 as printed); P11L derived by comparing it with the table's wild-type CDR3 ASSPTGGSPSPLH, 0.
Take […] (CDR3 as printed); S2I derived by comparing it with the table's wild-type CDR3 ASSPTGGSPSPLH: the enrichment was 0.
The same measure, in the same setting: as for […] (CDR3 as printed); S10F derived by comparing it with the table's wild-type CDR3 ASSPTGGSPSPLH, the figure is 0; as for […] (CDR3 as printed); S2T derived by comparing it with the table's wild-type CDR3 ASSPTGGSPSPLH, 0.
Still for that read-out and setting: as for […] (CDR3 as printed); S2M derived by comparing it with the table's wild-type CDR3 ASSPTGGSPSPLH, the figure is 0; as for […] (CDR3 as printed); P9T derived by comparing it with the table's wild-type CDR3 ASSPTGGSPSPLH, 0.
Same read-out and setting: next, […] (CDR3 as printed); T5Q derived by comparing it with the table's wild-type CDR3 ASSPTGGSPSPLH: 0; […] (CDR3 as printed); G7M derived by comparing it with the table's wild-type CDR3 ASSPTGGSPSPLH: 0; […] (CDR3 as printed); A1F derived by comparing it with the table's wild-type CDR3 ASSPTGGSPSPLH: 0.
Consider […] (CDR3 as printed); G7A derived by comparing it with the table's wild-type CDR3 ASSPTGGSPSPLH, for which the enrichment is 0.
Still for that read-out and setting: as for […] (CDR3 as printed); G7L derived by comparing it with the table's wild-type CDR3 ASSPTGGSPSPLH, the figure is 0.
With […] (CDR3 as printed); T5Y derived by comparing it with the table's wild-type CDR3 ASSPTGGSPSPLH, the enrichment stood at 0.
Still for that read-out and setting: as for […] (CDR3 as printed); L12Y derived by comparing it with the table's wild-type CDR3 ASSPTGGSPSPLH, the figure is 0; as for […] (CDR3 as printed); P9E derived by comparing it with the table's wild-type CDR3 ASSPTGGSPSPLH, 0.
The same measure, in the same setting: next, […] (CDR3 as printed); G6E derived by comparing it with the table's wild-type CDR3 ASSPTGGSPSPLH: 0; […] (CDR3 as printed); G6P derived by comparing it with the table's wild-type CDR3 ASSPTGGSPSPLH: 0; […] (CDR3 as printed); H13L derived by comparing it with the table's wild-type CDR3 ASSPTGGSPSPLH: 0.
On to […] (CDR3 as printed); H13V derived by comparing it with the table's wild-type CDR3 ASSPTGGSPSPLH, for which the enrichment was 0.
[…] (CDR3 as printed); S2R derived by comparing it with the table's wild-type CDR3 ASSPTGGSPSPLH: the enrichment was 0.
For […] (CDR3 as printed); T5N derived by comparing it with the table's wild-type CDR3 ASSPTGGSPSPLH, the enrichment was found to be 0.
Turning to […] (CDR3 as printed); P4Q derived by comparing it with the table's wild-type CDR3 ASSPTGGSPSPLH, the enrichment is 0.
Consider […] (CDR3 as printed); G6F derived by comparing it with the table's wild-type CDR3 ASSPTGGSPSPLH, for which the enrichment turned out to be 0.
With […] (CDR3 as printed); P9F derived by comparing it with the table's wild-type CDR3 ASSPTGGSPSPLH, the enrichment was determined as 0.
In the case of […] (CDR3 as printed); P4A derived by comparing it with the table's wild-type CDR3 ASSPTGGSPSPLH, the enrichment came to 0.
For the variant […] (CDR3 as printed); T5W derived by comparing it with the table's wild-type CDR3 ASSPTGGSPSPLH, the enrichment stood at 0.
For the variant […] (CDR3 as printed); P9Y derived by comparing it with the table's wild-type CDR3 ASSPTGGSPSPLH, the enrichment worked out at 0.
On the same count and under the same terms, next, […] (CDR3 as printed); L12G derived by comparing it with the table's wild-type CDR3 ASSPTGGSPSPLH: 0.
Same read-out and setting: next, […] (CDR3 as printed); H13D derived by comparing it with the table's wild-type CDR3 ASSPTGGSPSPLH: 0; […] (CDR3 as printed); G7C derived by comparing it with the table's wild-type CDR3 ASSPTGGSPSPLH: 0; […] (CDR3 as printed); L12I derived by comparing it with the table's wild-type CDR3 ASSPTGGSPSPLH: 0.
The same measure, in the same setting: as for […] (CDR3 as printed); A1G derived by comparing it with the table's wild-type CDR3 ASSPTGGSPSPLH, the figure is 0; as for […] (CDR3 as printed); L12D derived by comparing it with the table's wild-type CDR3 ASSPTGGSPSPLH, 0.
With […] (CDR3 as printed); S8Q derived by comparing it with the table's wild-type CDR3 ASSPTGGSPSPLH, the enrichment is 0.
On the same count and under the same terms, next, […] (CDR3 as printed); S3N derived by comparing it with the table's wild-type CDR3 ASSPTGGSPSPLH: 0.
